The values that follow come from article PMC10397247.

What all share (assay): two-hybrid library CCNG1;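 further: natural log of median RNA to DNA barcode read ratio; higher means stronger binding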
One assay has as its target T1, P6SHb.
T1 chain: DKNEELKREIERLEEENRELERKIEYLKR

In a further assay the target is T2, P5SHb.
T2 chain: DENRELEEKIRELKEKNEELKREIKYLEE

The target of the next assay is T3, P4SHb.
T3 chain: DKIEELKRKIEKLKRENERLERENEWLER

In the next assay the target is T4, P7SHb.
T4 chain: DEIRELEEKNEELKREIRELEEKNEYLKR

In another assay the target is T5, P9SHb.
T5 chain: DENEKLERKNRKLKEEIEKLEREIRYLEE

The target of a further assay is T6, P8SHb.
T6 chain: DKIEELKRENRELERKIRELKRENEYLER

The target in another assay is T7, P6A-bN.
T7 chain: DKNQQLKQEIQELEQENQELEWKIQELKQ

A further assay deals with T8, P5A-bN.
T8 chain: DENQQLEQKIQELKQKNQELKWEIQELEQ

A further assay concerns the target T9, P7A-bN.
T9 chain: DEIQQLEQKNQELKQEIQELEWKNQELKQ

The next assay addresses T10, P8A-bN.
T10 chain: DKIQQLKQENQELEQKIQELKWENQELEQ

Another assay has as its target T11, P3A-bN.
T11 chain: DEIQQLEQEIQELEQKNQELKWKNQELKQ

A further assay has as its target T12, P9A-bN.
T12 chain: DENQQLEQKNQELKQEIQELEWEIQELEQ

The next assay concerns the target T13, P4A-bN.
T13 chain: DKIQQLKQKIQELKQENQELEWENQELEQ

The next assay concerns the target T14, 4H2444-bN.
T14 chain: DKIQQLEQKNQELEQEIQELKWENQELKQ

Another assay concerns the target T15, 4H2585-bN.
T15 chain: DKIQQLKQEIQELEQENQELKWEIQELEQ

A further assay has as its target T16, 4H56-bN.
T16 chain: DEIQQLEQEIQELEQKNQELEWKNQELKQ

A further assay addresses T17, 4H932-bN.
T17 chain: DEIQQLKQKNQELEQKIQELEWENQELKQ

Another assay concerns the target T18, 4H2518-bN.
T18 chain: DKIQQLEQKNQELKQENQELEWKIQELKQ

In a further assay the target is T19, 4H2760-bN.
T19 chain: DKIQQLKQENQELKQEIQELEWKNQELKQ

Another assay deals with T20, 4H949-bN.
T20 chain: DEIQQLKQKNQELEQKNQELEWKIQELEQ

The next assay has as its target T21, 4H3297-bN.
T21 chain: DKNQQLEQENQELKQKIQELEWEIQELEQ

The next assay has as its target T22, 4H3041-bN.
T22 chain: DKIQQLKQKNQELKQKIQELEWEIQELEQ

The target of a further assay is T23, 4H2859-bN.
T23 chain: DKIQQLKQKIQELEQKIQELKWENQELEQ

The target in another assay is T24, 4H3381-bN.
T24 chain: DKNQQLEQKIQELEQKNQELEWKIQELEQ

The next assay has as its target T25, 4H730-bN.
T25 chain: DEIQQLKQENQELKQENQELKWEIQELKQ

For the next assay, the target named is T26, 4H796-bN.
T26 chain: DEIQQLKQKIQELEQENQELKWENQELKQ

Another assay addresses T27, 4H264-bN.
T27 chain: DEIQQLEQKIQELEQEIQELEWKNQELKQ

Another assay addresses T28, 4H349-bN.
T28 chain: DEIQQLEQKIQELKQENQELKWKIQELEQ

For a further assay, the target named is T29, 4H3364-bN.
T29 chain: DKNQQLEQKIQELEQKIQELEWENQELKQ

In the next assay the target is T30, 4H2931-bN.
T30 chain: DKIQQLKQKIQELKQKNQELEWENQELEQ

The target of a further assay is T31, 4H235-bN.
T31 chain: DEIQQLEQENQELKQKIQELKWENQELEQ

In another assay the target is T32, P8A-bS.
T32 chain: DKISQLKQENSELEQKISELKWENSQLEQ

In the next assay the target is T33, P3A-bS.
T33 chain: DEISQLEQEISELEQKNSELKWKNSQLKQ

A further assay deals with T34, P5A-bS.
T34 chain: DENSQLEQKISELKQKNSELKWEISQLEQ

In the next assay the target is T35, P7A-bS.
T35 chain: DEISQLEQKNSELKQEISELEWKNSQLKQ

A further assay deals with T36, P4A-bS.
T36 chain: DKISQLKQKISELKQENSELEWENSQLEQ

A further assay has as its target T37, P9A-bS.
T37 chain: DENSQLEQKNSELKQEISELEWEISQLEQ

For the next assay, the target named is T38, P5A.
T38 chain: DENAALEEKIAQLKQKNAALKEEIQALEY

DKIEELKRKIEKLKRENERLERENEWLER [P4SHb]: the interaction score with P6SHb is 0.8; with P5SHb it was -0.773; in the assay with P4SHb it was -0.574; with P7SHb, -1.05; with P9SHb, 0.746; with P8SHb it was -1.17.

For the molecule DEIQQLEQEIQELEQKNQELKWKNQELKQ [P3A-bN], the interaction score was 0.0905 with P6A-bN; -1.91 in the assay with P5A-bN; 0.502 with P7A-bN; -0.0492 with P8A-bN; -0.693 with P3A-bN; 0.0484 with P9A-bN. Also, the interaction score with P4A-bN came out at 1.79.

Regarding DEIQQLEQENQELEQENQELEWEIQELEQ [P1A-bN], the interaction score in the assay with P6A-bN was -0.545; in the assay with P5A-bN, -0.827; in the assay with P7A-bN it was -1.2; with P8A-bN it was -0.492; with P3A-bN, -1.29; in the assay with P9A-bN it was -2.46. Further, the interaction score with P4A-bN was -0.418.

In the case of DKIQQLEQKNQELEQEIQELKWENQELKQ [4H2444-bN], the interaction score with 4H2444-bN was 1.34; with 4H2585-bN, -0.578; with 4H56-bN, 0.273; with 4H932-bN, 0.018; in the assay with 4H2518-bN, -0.0731; with 4H2760-bN, -0.126. Besides, the interaction score is -0.477 with 4H949-bN; -0.0483 with 4H3297-bN; 0.447 with 4H3041-bN; 0.194 with 4H2859-bN; 0.0258 with 4H3381-bN; -0.506 with 4H730-bN. The interaction score is -0.0985 with 4H796-bN; 0.471 with 4H264-bN; -0.375 in the assay with 4H349-bN; -0.17 with 4H3364-bN; -0.103 with 4H2931-bN.

As for DEIQQLEQENQELKQKIQELKWENQELEQ [4H235-bN], the interaction score in the assay with 4H2444-bN is -0.884; with 4H2585-bN it was -0.77; in the assay with 4H56-bN, -0.626; with 4H932-bN, -0.682; with 4H2518-bN, -0.299; with 4H2760-bN it was 2.03. The interaction score in the assay with 4H949-bN was -0.438; with 4H3297-bN it was -0.527; with 4H3041-bN it was -0.319; with 4H235-bN it was 0.562; in the assay with 4H2859-bN it was 0.00948; in the assay with 4H3381-bN, -1.48. Moreover, the interaction score in the assay with 4H730-bN is -1.94; with 4H796-bN, -0.458; with 4H264-bN, -0.206; with 4H349-bN, -0.0107; in the assay with 4H3364-bN, 0.709; with 4H2931-bN it was -1.14.

As to DEISQLEQEISELEQKNSELKWKNSQLKQ [P3A-bS], the interaction score with P8A-bS is -0.303; with P3A-bS, -1.29; with P5A-bS, -0.938; with P7A-bS, -0.377; with P4A-bS it was 1.45; with P9A-bS it was 0.297.

On to DENRELEEKIRELKEKNEELKREIKYLEE [P5SHb], for which the interaction score with P6SHb is 1.24; with P5SHb it was -0.373; with P7SHb, -0.193; in the assay with P9SHb, -0.0948; in the assay with P8SHb, 0.218.

DENQQLEQKIQELKQKNQELKWEIQELEQ [P5A-bN]: the interaction score is 1.62 in the assay with P6A-bN; -1.81 in the assay with P5A-bN; -1.53 in the assay with P7A-bN; -0.311 with P8A-bN; -1.14 in the assay with P9A-bN.

With DKIQQLKQKNQELKQKNQELKWKIQELKQ [P2A-bN], the interaction score with P5A was -1.29; with P6A-bN it was -0.329; in the assay with P5A-bN, -0.834; with P7A-bN, -2.31; with P8A-bN, -0.172; with P3A-bN it was -1.27. Also, the interaction score with P9A-bN was -0.223; with P4A-bN, -0.0603.
